In paper PMC9913075:

Target: Taspase1, endogenous in HeLa cells (human (endogenous in HeLa)) (UniProt Q9H6P5)
Assay: proximity ligation; Duolink PLA on fixed HeLa cells with rabbit anti-Topoisomerase IIα/β and mouse anti-Taspase1; foci per nucleus counted

Chain of UniProt Q9H6P5 (Q9H6P5 whole entry): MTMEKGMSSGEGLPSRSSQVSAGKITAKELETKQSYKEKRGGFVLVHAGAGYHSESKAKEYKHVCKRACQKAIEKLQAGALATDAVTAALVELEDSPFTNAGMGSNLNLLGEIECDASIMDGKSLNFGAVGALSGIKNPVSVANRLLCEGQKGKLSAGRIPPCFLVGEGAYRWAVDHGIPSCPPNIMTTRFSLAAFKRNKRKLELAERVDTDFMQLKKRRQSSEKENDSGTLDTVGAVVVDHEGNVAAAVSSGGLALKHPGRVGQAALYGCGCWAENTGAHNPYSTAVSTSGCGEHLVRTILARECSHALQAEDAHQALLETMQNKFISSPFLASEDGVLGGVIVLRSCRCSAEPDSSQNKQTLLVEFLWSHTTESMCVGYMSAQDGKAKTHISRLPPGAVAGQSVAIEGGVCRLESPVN

PLA foci per nucleus (median) (foci per nucleus): 45
Substance: Topo IIα/β (endogenous, HeLa cells, detected with an antibody that recognises both isoforms)
